{"source": "patent US20230241243A1", "about": "“CARRIER PARTICLE-DRUG CONJUGATES, SELF-IMMOLATIVE LINKERS, AND USES THEREOF” (priority 2020, published 2023)", "data": [{"assay": "Drug-release assay of nanoparticle-conjugated linker-payloads under cleavage conditions (Cat-B, redox-responsive or pH-sensitive cleaving study), RP-HPLC", "type": "in vitro ADME", "conditions": "linker-payload conjugated to DBCO-functionalized silica nanoparticle, 37° C., 24 hours", "procedure": "To assess the drug releasing profile of exemplary linker-drug conjugates, the linker-drug conjugates were each conjugated to a DBCO-functionalized ultrasmall silica nanoparticle via a click chemistry reaction between the azide groups on the linker-drug conjugate precursors and the dibenzocyclooctyne (DBCO) groups of the nanoparticles. The resulting drug-nanoparticle-conjugates were then incubated under the desired releasing conditions for release kinetics tests.\nThe amount of released drugs vs non-released drugs was measured using reverse phase HPLC by analyzing the area under curve (AUC) (FIG. 10A and FIG. 10B).\nGeneral Method: A Waters Xbridge Peptide BEH C18 column with 4.6 mm×50 mm dimensions, a particle size of 5 μm, and a pore size of 300 A was used (part number 186003622). Acetonitrile (VWR HiPerSolv Chromanorm, UHPLC Grade) was used as received without further preparation, […] trifluoroacetic acid in deionized water was prepared by adding 1 mL of trifluoroacetic acid (HPLC grade, Millipore-Sigma) into 999 mL 18.2 MΩ·cm deionized water that was generated using an IQ7000 Millipore deionized water system and passed through a 0.2 μm filter before use. The seal wash used for the system was composed of 90% 18.2 MΩ·cm deionized water and 10% methanol (HPLC grade, VWR). The injection needle was washed using a mixture of 25 vol % 18.2 MΩ·cm deionized water, 25 vol % acetonitrile, 25 vol % methanol, and 25 vol % 2-propanol. Samples were prepared in a concentration range of 0.25 to 2 μM and the injection volume ranges from 60 μL to 10 μL, respectively. Higher sample concentration can be used if detector signal is low. Vials used for all injections are fresh Waters Total Recovery vials with screw caps that have pre-slit PTFE septa (part number 186000385C).\nMethod for Protease-cleavable and Redox-responsive Linkers: Before any sample injections were started, the PDA lamp was turned on and allowed to warm up for at least 30 minutes. The system and column were equilibrated with 95% 0.01% TFA in deionized water, 5% acetonitrile for at least 10 minutes at a flow rate of 1.0 mL/min after the PDA lamp had warmed up. Two blank injections, with injection volumes of 10 μL containing only 18.2 MΩ·cm deionized water, were performed before the injection of any samples for analysis. The gradient used to elute protease-cleavable and redox-sensitive linkers conjugated to hybrid silica nanoparticles, and their components began at 95% 0.01% TFA in deionized water and 5% acetonitrile and linearly changed to 15% 0.01% TFA in deionized water, 85% acetonitrile over 8 minutes. Acetonitrile composition was increased to 95% over an additional minute and held at 95% for an additional 2 minutes to ensure that any strongly retained compounds are eluted. The composition of the solvent was then changed back to the starting composition of the gradient over an additional minute and allowed to equilibrate for 3 minutes before another injection began. Between sample injections a blank injection was run to ensure that no carryover occurred.\nMethod for pH-sensitive Linkers: Before any sample injections were started, the PDA lamp was turned on and allowed to warm up for at least 30 minutes. A gradient of pure deionized water and acetonitrile was used, all other consumables including column and vials were the same as for the method to purify Cat-B sensitive and redox-responsive linkers elaborated on above. Briefly the gradient composition began at 95% deionized water and 5% acetonitrile at a flow rate of 1.0 mL/min (not changed throughout the method). The composition was changed from this starting composition to 15% deionized water and 85% acetonitrile over a 12-minute period, during which the retained drug-linkers, released drug, free drug linker, and any other impurities eluted. At the 12-minute mark the composition was rapidly changed to 5% deionized water and 95% acetonitrile over the course of one minute. […]", "values": [{"compound": "CCc1c2c(nc3ccc(OC(C(=O)N(C)C)c4ccc(NC(=O)[C@H](CCCNC(N)=O)NC(=O)[C@@H](NC(=O)CCOCCOCCOCCOCCOCCOCCOCCOCCOCCOCCOCCN=[N+]=[N-])C(C)C)cc4)cc13)-c1cc3c(c(=O)n1C2)COC(=O)[C@]3(O)CC", "note": "(stereo partly drawn) [Example 20, 1-azido-N-((2S)-1-(((2S)-1-((4-(1-(((s)-4,11-diethyl-4-hydroxy-3,14-dioxo-3,4,12,14-tetrahydro-1H-pyrano[3′,4′:6,7]indolizino[1,2-b]quinolin-9-yl)oxy)-2-(dimethylamino)-2-oxoethyl)phenyl)amino)-1-oxo-5-ureidopentan-2-yl)amino)-3-methyl-1-oxobutan-2-yl)-3,6,9,12,15,18,21,24,27,30,33-undecaoxahexatriacontan-36-amide]", "% of Payload Release in 24 Hours Under Cleavage Conditions": "+ (‘+’ indicates 5-25% release)"}, {"compound": "CCc1c2c(nc3ccc(OC(C(=O)N(C)C)c4ccc(NC(=O)[C@H](CCCNC(N)=O)NC(=O)[C@@H](NC(=O)CCOCCOCCOCCOCCOCCOCCOCCOCCOCCN=[N+]=[N-])C(C)C)cc4)cc13)-c1cc3c(c(=O)n1C2)COC(=O)[C@]3(O)CC", "note": "(stereo partly drawn) [Example 19, 1-azido-N-((2S)-1-(((2S)-1-((4-(1-(((S)-4,11-diethyl-4-hydroxy-3,14-dioxo-3,4,12,14-tetrahydro-1H-pyrano[3′,4′:6,7]indolizino[1,2-b]quinolin-9-yl)oxy)-2-(dimethylamino)-2-oxoethyl)phenyl)amino)-1-oxo-5-ureidopentan-2-yl)amino)-3-methyl-1-oxobutan-2-yl)-3,6,9,12,15,18,21,24,27-nonaoxatriacontan-30-amide]", "% of Payload Release in 24 Hours Under Cleavage Conditions": "+ (‘+’ indicates 5-25% release)"}, {"compound": "CCc1c2c(nc3ccc(OCCCNC(=O)OCc4ccc(SSC(C)(C)CNC(=O)CCOCCOCCOCCOCCOCCOCCOCCOCCOCCN=[N+]=[N-])cc4)cc13)-c1cc3c(c(=O)n1C2)COC(=O)[C@]3(O)CC", "note": "[Example 59, 4-((1-azido-33-methyl-30-oxo-3,6,9,12,15,18,21,24,27-nonaoxa-31-azatetratriacontan-33-yl)disulfanyl)benzyl (S)-(3-((4,11-diethyl-4-hydroxy-3,14-dioxo-3,4,12,14-tetrahydro-1H-pyrano[3′,4′:6,7]indolizino[1,2-b]quinolin-9-yl)oxy)propyl)carbamate]", "% of Payload Release in 24 Hours Under Cleavage Conditions": "+++ (‘+++’ indicates 51-75% release)"}, {"compound": "CCc1c2c(nc3ccc(OCc4ccc(NC(=O)[C@H](CCCNC(N)=O)NC(=O)[C@@H](NC(=O)CCOCCOCCOCCOCCOCCN=[N+]=[N-])C(C)C)cc4)cc13)-c1cc3c(c(=O)n1C2)COC(=O)[C@]3(O)CC", "note": "[Example 47, 1-azido-N-((S)-1-(((S)-1-((4-((((S)-4,11-diethyl-4-hydroxy-3,14-dioxo-3,4,12,14-tetrahydro-1H-pyrano[3′,4′:6,7]indolizino[1,2-b]quinolin-9-yl)oxy)methyl)phenyl)amino)-1-oxo-5-ureidopentan-2-yl)amino)-3-methyl-1-oxobutan-2-yl)-3,6,9,12,15-pentaoxaoctadecan-18-amide]", "% of Payload Release in 24 Hours Under Cleavage Conditions": "+ (‘+’ indicates 5-25% release)"}, {"compound": "CCc1c2c(nc3ccc(OCCCSSC(C)(C)CNC(=O)CCOCCOCCOCCOCCOCCOCCOCCOCCOCCN=[N+]=[N-])cc13)-c1cc3c(c(=O)n1C2)COC(=O)[C@]3(O)CC", "note": "[Example 55, (S)-1-Azido-N-(2-((3-((4,11-diethyl-4-hydroxy-3,14-dioxo-3,4,12,14-tetrahydro-1H-pyrano[3′,4′:6,7]indolizino[1,2-b]quinolin-9-yl)oxy)propyl)disulfanyl)-2-methylpropyl)-3,6,9,12,15,18,21,24,27-nonaoxatriacontan-30-amide]", "% of Payload Release in 24 Hours Under Cleavage Conditions": "+ (‘+’ indicates 5-25% release)"}]}]}
